This is an account of results in patent publication US10570379B2, “Polypeptides for carbon-carbon bond formation and uses thereof” (INVISTA North America S.à.r.l., priority 2015, dated 2020).

Series [1] is described as follows: Screen for dual transferase/ketothiolase activity with acetyl-CoA and sodium acrylate, LC-MS detection. In kind it is biochemical. As to conditions: for ketothiol-product: 3-oxopent-4-enoyl-CoA via thiolase activity; for thiol-product: propenoyl-CoA via transferase activity. The procedure: (§1) Acetyl-CoA was used at a final concentration of 1.5 mM and 30 mM of the substrate being studied (e.g. carboxylic acid salts, such as sodium acrylate) or 1.5 mM of propionyl-CoA in 50 mM Hepes buffer (pH 7.5). The reaction was started by addition of 0.5 mg/mL of YdiF pure protein or mutants to a final volume of 250 μL and incubated for 1 to 10 hours at 30° C.
Two controls were made from similar mixture except that the enzymes were inactivated by heating-up at 95° C. for 20 min or they were replaced by Buffer C.
(§2) All samples were prepared in triplicate and spun down at 15000 g for 20 min at 4° C. Detection of the thiol product (e.g. acryloyl-CoA) synthesized from CoA-transferase activity and the keto-thiol product (e.g. 3-oxopent-4-enoyl-CoA) due to putative thiolase activity of YdiF (or homologues) was carried out by Liquid Chromatography coupled to a qTof-Mass spectrometry (in positive mode), using a C18 column (Zorbax Eclipse C18, 2.1×50 mm, 1.8μ, Agilent, code product: 959757-902) and a gradient of 10 mM ammonium acetate and acetonitrile as mobile phase.
YdiF from Clostridium propionicum belongs to the enzymatic class EC2.8.3.8. Other members of this enzyme class with similar structural features to YdiF, as well as proteins with a CoA-transferase activity from close-by enzymatic classes, were screened for dual transferase/ketothiolase activity as described in Example 2. Acetyl-CoA and sodium acrylate were provided as substrates. LC-MS was used to detect the thiol-product (propenoyl-CoA) synthesized via the transferase activity and the ketothiol-product (3-oxopent-4-enoyl-CoA) synthesized via the thiolase activity, as described in Example 2.

The nature of series [2]: Solubility of the expressed protein (Table 3). As to conditions: protein expressed in E. coli.
Description: From a fresh LB plate containing the desired clone transformant, one colony (or small scratch) was picked to inoculate 25 mL of LB supplemented with the relevant antibiotic and the pre-culture was incubated overnight at 37° C., 230 rpm. The following morning, the TB auto-induced medium (Merck/Code product: 71491-5) was prepared by mixing 60 g TB/L supplemented with 10 mL Glycerol/L of TB and microwaved during 3+2 minutes at full power. The TB was cooled down before use and splitting it in sterile flasks. Then, the pre-culture incubated overnight in LB was centrifuged and the supernatant discarded. The obtained pellet was resuspended with 5 mL of freshly prepared TB medium and used to inoculate 500 mL of TB dispensed in sterile flasks and supplemented with the appropriate antibiotic. The inoculated medium was incubated at 28° C. for at least 20 h, 230 rpm.
The culture was centrifuged at least at 3000 g/20 min/4° C. and the pellet used immediately or stored at −80′C.
The pellets (fresh or thawed) were resuspended in 10 to 20 mL of Buffer A (50 mM Hepes+150 mM NaCl+40 mM Imidazole+5% Glycerol−pH 7.5). The resuspended cells were then sonicated in ice for, 5 min at 37% Amplitude with 5″ ON and 15″ OFF sonication pulse. The sonicated cells were centrifuged for at least 20 min at 15500 g and 4° C. The supernatant containing the soluble fraction of proteins was recovered, filtered using 0.45 or 0.2 um filters, and used for His-trap protein purification.
Series [3] can be described thus: Substrate specificity, 4-Hydroxybutyrate with acetyl-CoA, LC-MS. In kind it is biochemical. As to conditions: substrate 4-Hydroxybutyrate + acetyl-CoA. As to the method: as §1, §2
To study the substrate specificity of YdiF, several commercially available substrates were provided to YdiF (and homologues) in combination with acetyl-CoA, as described in Example 2. LC-MS was used to detect the thiol-product synthesized via the transferase activity and the ketothiol-product synthesized via the thiolase activity.
4-Hydroxybutyrate was used as a substrate with acetyl-CoA for protein 244 and the corresponding products from the transferase and ketothiolase activities of protein 244 were detected.

B1: Bdigene 274: Acetate CoA-transferase YdiF from Megasphaera elsdenii DSM 20460, Uniprot G0VND6, SEQ ID NO: 7 (protein, listed as Megasphaera elsdenii)
chain: MRKVEIITAEQAAQLVKDNDTITSIGFVSSAHPEALTKALEKRFLDTNTPQNLTYIYAGSQGKRDGRAAEHLAHTGLLKRAIIGHWQTVPAIGKLAVENKIEAYNFSQGTLVHWFRALAGHKLGVFTDIGLETFLDPRQLGGKLNDVTKEDLVKLIEVDGHEQLFYPTFPVNVAFLRGTYADESGNITMDEEIGPFESTSVAQAVHNCGGKVVVQVKDVVAHGSLDPRMVKIPGIYVDYVVVAAPEDHQQTYDCEYDPSLSGEHRAPEGATDAALPMSAKKIIGRRGALELTENAVVNLGVGAPEYVASVAGEEGIADTITLTVEGGAIGGVPQGGARFGSSRNADAIIDHTYQFDFYDGGGLDIAYLGLAQCDGSGNINVSKFGTNVAGCGGFPNISQQTPNVYFCGTFTAGGLKIAVEDGKVKILQEGKAKKFIKAVDQITFNGSYAARNGKHVLYITERCVFELTKEGLKLIEVAPGIDIEKDILAHMDFKPIIDNPKLMDARLFQDGPMGLKK
Take B1: in series [1], the ketothiol-product result is “✓” and the thiol-product entry is given as “✓”. Further, the Solubility result in series [2] is recorded as “✓”.

B2: Bdigene 0344: Succinyl-CoA: acetate CoA-transferase from Acetobacter aceti, Uniprot B3EY95 (protein, UniProt B3EY95 1-505, looked up)
Succinyl-CoA:acetate …: MTERIRNVALRSKVCPAETASELIKHGDVVGTSGFTGAGYPKEVPKALAQRMEAAHDRGEKYQISLITGASTGPQLDGELAKANGVYFRSPFNTDATMRNRINAGETEYFDNHLGQVAGRAVQGNYGKFNIALVEATAITEDGGIVPTSSVGNSQTFLNLAEKVIIEVNEWQNPMLEGIHDIWDGNVSGVPTRDIVPIVRADQRVGGPVLRVNPDKIAAIVRTNDRDRNAPFAAPDETAKAIAGYLLDFFGHEVKQNRLPPSLLPLQSGVGNVANAVLEGLKEGPFENLVGYSEVIQDGMLAMLDSGRMRIASASSFSLSPEAAEEINNRMDFFRSKIILRQQDVSNSPGIIRRLGCIAMNGMIEADIYGNVNSTRVMGSKMMNGIGGSGDFARSSYLSIFLSPSTAKGGKISAIVPMAAHVDHIMQDAQIFVTEQGLADLRGLSPVQRAREIISKCAHPDYRPMLQDYFDRALKNSFGKHTPHLLTEALSWHQRFIDTGTMLPS
Consider B2, for which, in series [1], the ketothiol-product entry is reported as “✓” and the thiol-product result was “✓”. The Solubility entry in series [2] is “✓”.

B3: Bdigene 272: Acetate CoA-transferase YdiF from Peptostreptococcaceae bacterium oral taxon, Uniprot U2L5C9, SEQ ID NO: 5 (protein)
chain: MAKFVTLEEAVSVVKNGDTVATTGFVQVANPEALEWALGKRFEETKEPRDLTLFYCAGQGDGDCRAVNHFAKEGMLKRVVAGHFNMAPLLRQFISDNKCEAYNVPQGVLCNMVRDIAAKKPGVISHVGLNTFADPRIEGCKINLVTKEDIVELMMINGEEKLFYKTFPLTIAFIKGTYADERGNVTLENEGIPSEATSIAQSVHNCGGKVIVQVEKVVAAGTLDPKLVKVPGIYVDYIVQVDDPSMRQQCYGVDYEPELAGNVYIPLSDIPLKTPLNERKIIARRGAFEIRKGNVGNLGIGVPEVVSEVVSEEGITDWLTLTVEVGPVGGSPQGKNRFGTAINAEAILDQPYQFDFYDGGGLDIAYLGLAQADAKGNLNVSKFGDRVAGCGGFIDISQNSKAVVFCGSFTAGGLKVEVNDGKLNIVQEGKVKKFVNKVQQITFSGEYARKTGQRVFYVTERAVFQMKPEGLTLIEIAPGVDLEKDVLNQMEFKPLIAKDLKLMDERIFRPGPMGIKNDN
B3: in series [1], the ketothiol-product entry is “✓” and the thiol-product entry is on record as “✓”. In series [2], the Solubility result is “✓”.

B4: Bdigene 0244: 4-Hydroxybutyrate-CoA transferase from Clostridium aminobutyricum, Uniprot Q9RM86, SEQ ID NO: 19 (protein, listed as Clostridium aminobutyricum)
chain: MDWKKIYEDRTCTADEAVKSIKSGDRVLFAHCVAEPPVLVEAMVANAAAYKNVTVSHMVTLGKGEYSKPEYKENFTFEGWFTSPSTRGSIAEGHGQFVPVFFHEVPSLIRKDIFHVDVFMVMVSPPDHNGFCCVGVSSDYTMQAIKSAKIVLAEVNDQVPVVYGDTFVHVSEIDKFVETSHPLPEIGLPKIGEVEAAIGKHCASLIEDGSTLQLGIGAIPDAVLSQLKDKKHLGIHSEMISDGVVDLYEAGVIDCSQKSIDKGKMAITFLMGTKRLYDFAANNPKVELKPVDYINHPSVVAQCSKMVCINACLQVDFMGQIVSDSIGTKQFSGVGGQVDFVRGASMSIDGKGKAIIAMPSVAKKKDGSMISKIVPFIDHGAAVTTSRNDADYVVTEYGIAEMKGKSLQDRARALINIAHPDFKDELKAEFEKRFNAAF
As for B4, the results for the ketothiol-product result in series [3] (listed as Protein 244), in series [3] (listed as protein 244) and in series [1] were “✓”, “detected” and “✓”, respectively. The thiol-product entry in series [3] (listed as Protein 244) is “✓”; in series [3] (listed as protein 244), “detected”; in series [1], “✓”. Besides, in series [2], the Solubility result is reported as “✓”.

B5: Bdigene 0345: Succinyl-CoA--D-citramalate CoA-transferase from Chloroflexus aurantiacus, Uniprot A9WGE3 (protein, UniProt A9WGE3 1-402, looked up)
Succinyl-CoA--D-citramalate …: MSSQRPPRPLDDVRVLELGAFLAGPFCGQLLADFGAEVIKVEPPGKGDPMREWGRHRYKGRTLWWPVLARNKKSITIDLRTPEGQALVKRLVPHVDMVLENFRPGTLEEWGLGWEELHALNPGLIMIRVSGFGQTGPYRDKAGFGSIGEAMGGIRAITGFPDRPPTRIGISIGDSLAATFAALGALVALHQRQRSGQGQVVDIGIYEGVLALMESMIPEYQLTGHIRERTGNILPNVAPSNIYPTADGSWFVIGANADTIFTRLAQAMGQPELATDPRFATHQARGEHQAELDDLIAAWTLNYTADQLQVMMDEYGVPAGRIYTAKEMLSDPHFIARQSIIGVHDPDLGEIKMQNVVPRLSATPGGVDWTGPALGQHNREIFTDLLGLTEDDLAMLQAKRVI
On to B5, for which, in series [1], the ketothiol-product entry is listed as “✓” and the thiol-product entry is given as “✓”. Also, the Solubility result in series [2] is “✓”.

B6: Bdigene 273: Acetate CoA-transferase YdiF from Firmicutes bacterium CAG, Uniprot R5ADR5, SEQ ID NO: 6 (protein)
chain: MARQVKVITAAEAAALIKNGDTVTTSGFVASAIPEALDRAVEERFLATGEPRDITYVYCGSQGNKDGRGAEHFAHEGLLKRYIAGHWATVPALQKMALENKMEAYNVSQGALCHLFRDIAAHRPGCFTKVGLGTFIDPRNGGGKVNDVTKEDIIELVNIKGQDYLFYPAFPINVALIRGTYADESGNISFEKEVSPLEGTSVCQAVKNSGGIVVVQVEKLVKAGTLDPRLVKVPGIYVDYVVVADPKDHQQTLDCDYDPALSGEMRNPDVAPEPLPLSAKKIIGRRGAVELEKDVAVNLGVGAPEYVASVANEEGIGDFMTLTVEGGAVGGVPAGGIRFGSAYNADALLDQGYQFDFYDGGGLDLCYLGLAECDPHGSINVSRFGPRIAGCGGFINITQCTPKVFFCGTFTAGGLKVKVEDGKVVIAQEGKNKKFVKSVEQVTFNGDIANKNGQHVMYITERCVFVLKEDGLHLTEIAPGIDLQTQILDQMEFEPIIDRNADGSITLMDAKLFADGLMGLKEMKEGK
Consider B6, for which, in series [1], the ketothiol-product result is recorded as “✓” and the thiol-product result is listed as “✓”. The Solubility entry in series [2] is listed as “✓”.
